Numbering of substitutions follows the chain as printed. Read-outs that look alike come from different tables or passages of the source. Blank lines part the entries; values can stand above or below the binder they belong to.
How the values were obtained:
Assay in all cases: cell-based or functional assay
[1] = biological target: T1, V5-, His-tagged recombinant human PCSK9 protein (human, UniProt Q8NBP7 31-692)
[2] = biological target: T1, V5-, His-tagged recombinant human PCSK9 …; remark: listed apart in the source
[3] = biological target: T1, V5-, His-tagged recombinant human PCSK9 …; remark: listed apart in the source
[4] = biological target: T1, V5-, His-tagged recombinant human PCSK9 …; remark: listed apart in the source
[5] = biological target: T1, V5-, His-tagged recombinant human PCSK9 …; remark: listed apart in the source

T1 sequence (Q8NBP7 31-692 limits assumed): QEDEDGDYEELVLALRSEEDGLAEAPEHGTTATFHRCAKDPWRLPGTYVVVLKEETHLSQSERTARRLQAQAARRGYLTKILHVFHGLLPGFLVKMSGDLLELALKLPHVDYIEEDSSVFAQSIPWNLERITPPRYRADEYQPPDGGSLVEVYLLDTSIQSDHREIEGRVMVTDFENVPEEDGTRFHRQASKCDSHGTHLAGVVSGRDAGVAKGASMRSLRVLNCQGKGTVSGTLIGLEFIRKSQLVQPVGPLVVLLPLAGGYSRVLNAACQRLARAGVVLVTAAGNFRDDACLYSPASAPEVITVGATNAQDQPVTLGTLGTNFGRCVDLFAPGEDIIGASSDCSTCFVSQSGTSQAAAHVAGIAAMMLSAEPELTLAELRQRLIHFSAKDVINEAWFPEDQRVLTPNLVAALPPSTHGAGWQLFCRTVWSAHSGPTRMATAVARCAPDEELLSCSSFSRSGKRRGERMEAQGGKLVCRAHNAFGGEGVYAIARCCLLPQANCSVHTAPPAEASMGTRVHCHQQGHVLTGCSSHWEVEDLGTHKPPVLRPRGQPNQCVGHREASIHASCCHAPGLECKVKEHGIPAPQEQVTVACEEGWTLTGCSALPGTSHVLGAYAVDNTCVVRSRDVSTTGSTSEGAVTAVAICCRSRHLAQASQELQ

- IC50 for reversing the PCSK9-dependent loss of cellular diI-LDL uptake (Exopolar assay; Fab titrated against PCSK9 fixed at 25 µg/ml) [2]: 1250 nM
B2: 3BX5C01 (Fab, V domains shown)
VH: QVQLVQSGAEVKKPGESLKISCKGSGYSFTSYGISWVRQMPGKGLEWMGMIDPSDSFTTYSPSFQGQVTISADKSISTAYLQWSSLKASDTAMYYCARGYYFTYALQPMDHWGQGTLVTVSS
VL: DIELTQPPSVSVAPGQTARISCSGDNLRDYIVHWYQQKPGQAPVLVIYDDSNRPSGIPERFSGSNSGNTATLTISGTQAEDEADYYCGFDNGGDIDVFGGGTKLTVLG

- IC50 for reversing the PCSK9-dependent loss of cellular diI-LDL uptake (Exopolar assay; Fab titrated against PCSK9 fixed at 25 µg/ml) [4]: 269 nM
B4: 3CX3D02 (Fab, V domains shown)
VH: QVQLVQSGAEVKKPGESLKISCKGSGYSFTNSWIGWVRQMPGKGLEWMGIIYPSDSYTIYSPSFQGQVTISADKSISTAYLQWSSLKASDTAMYYCARGGGYYYALMDVWAQGTLVTVSS
VL: DIQMTQSPSSLSASVGDRVTITCRASQTISTWLNWYQQKPGKAPKLLIYAASSLQSGVPSRFSGSGSGTDFTLTISSLQPEDFATYYCLQDSSLPLTFGQGTKVEIKR

Second part, the binder before the results:

B1: 3CX4B08 (Fab, V domains shown)
VH: QVQLVESGGGLVQPGGSLRLSCAASGFTFSNYTMNWVRQAPGKGLEWVSFISSSSSETYYADSVKGRFTISRDNSKNTLYLQMNSLRAEDTAVYYCARGYGDMVDLWGQGTLVTVSS
VL: DIELTQPPSVSVAPGQTARISCSGDSIPTYYVAWYQQKPGQAPVLVIYSDTDRPSGIPERFSGSNSGNTATLTISGTQAEDEADYYCQSFDNHGYHVFGGGTKLTVLG
- IC50 for reversing the PCSK9-dependent loss of cellular diI-LDL uptake (Exopolar assay; Fab titrated against PCSK9 fixed at 25 µg/ml) [1]: 127 nM

B3: 3CX2A06 (Fab, V domains shown)
VH: QVQLVQSGAEVKKPGESLKISCKGSGYSFSNFWIAWVRQMPGKGLEWMGIIDPSDSWTRYSPSFQGQVTISADKSISTAYLQWSSLKASDTAMYYCARGDGQDFDNWGQGTLVTVSS
VL: B4 VL with T28N, S30N, T31S, W32Y, T85V, D91N, S92Y, S93D, L96N
- IC50 for reversing the PCSK9-dependent loss of cellular diI-LDL uptake (Exopolar assay; Fab titrated against PCSK9 fixed at 25 µg/ml) [3]: 107 nM

B5: 1CX1G08 (Fab, V domains shown)
VH: QVQLVESGGGLVQPGGSLRLSCAASGFTFSDYWVSWVRQAPGKGLEWVSFISYDGSSTYYADSVKGRFTISRDNSKNTLYLQMNSLRAEDTAVYYCARTYFEGVDVWGQGTLVTVSS
VL: DIELTQPPSVSVAPGQTARISCSGDNIGTYYVHWYQQKPGQAPVLVIYDDSNRPSGIPERFSGSNSGNTATLTISGTQAEDEADYYCGTWDNTSFNLVFGGGTKLTVLG
- IC50 for reversing the PCSK9-dependent loss of cellular diI-LDL uptake (Exopolar assay; Fab titrated against PCSK9 fixed at 25 µg/ml) [5]: 267 nM
